Article PMC5101508 (Scientific Reports, 2016)

Key:
[1] = biological target: monoclonal antibody F240 (IgG) (human (isolated from an HIV infected individual)); assay: SPR
mAb F240 [2] = assay: Surface Plasmon Resonance (SPR) of gp41 peptide on captured F240 IgG; format: binding; details: reduced vs oxidized peptide
Experimental: Sensorgrams were obtained at room temperature for mAb F240 immobilized on a Protein A chip with 0–200 nM concentrations of gp41 peptide passed over the chip. […] Standard deviations of ka, kd and KD for two experiments are shown.
The binding affinity and kinetics of F240 for gp41_583–618 peptide and gp41_583–618 peptide pretreated to reduce C^598-C^604 disulfide bond was assessed by Surface Plasmon Resonance on a Biacore T-100 (GE Healthcare) at 25 °C. The reduced gp41_583–618 was generated by treating the oxidized form of the same peptide with 0.05 M of TCEP. Protein A was first immobilized onto the second of the two flow cells on a CM5 chip to ~3000 response units (RU) and the first flow cell blocked with a standard amine coupling protocol (GE Healthcare). F240 IgG to be evaluated was then captured onto the second flow cell by flowing a 5–10 nM solution of mAb at 10 μl/min flow rate for 30 seconds. […] Varying concentrations (0–200 nM) of the oxidized and reduced forms of the peptide were then passed over both flow cells at a flow rate of 30 μl/min for 200 seconds and allowed to dissociate by passing buffer over both cells at the same flow rate for 800 seconds. The cells were regenerated with a 30 second injection of 0.1 M glycine pH 3.0 with a flow rate of 100 μl/min and the antibody reloaded onto the second flow cell for each peptide concentration. […]

mAb F240 [3] = assay: Isothermal Titration Calorimetry (ITC) of F240 with gp41 peptides; format: binding; details: 25 °C, 1X PBS pH 7.4, F240 111 μM in syringe, peptide 11 μM in cell, single-site model
Experimental: Sensorgrams were obtained at room temperature for mAb F240 immobilized on a Protein A chip with 0–200 nM concentrations of gp41 peptide passed over the chip. […] Standard deviations of ka, kd and KD for two experiments are shown. […] The binding isotherms were fitted to a one-site binding model using Origin for ITC version 7.0383 (MicroCal). The fitting yields the stoichiometry (N), the binding constant (KD), and the enthalpy (ΔH) of the binding reaction.
The ITC experiments were performed using an ITC200 system (Micro-Cal) as previously described by Bradshaw et al.[61], at 25 °C in a 1X PBS buffer pH 7.4. F240 was dialyzed against this buffer overnight before the experiment. The peptides were dissolved in the final dialysis buffer. […] Titrations were performed at 25 °C with 17 injections of 2.42 μl aliquots, with 210–240 second intervals between injections. Heats of dilutions were measured and subtracted from each data set. Data were corrected for the heat of dilution and fitted using a nonlinear least-squares routine using a single-site binding model with Origin for ITC version 7.0383 (MicroCal).

[4] = test system: EGFP-CEM-NKr-CCR5-SNAP cells sensitized with AT-2–inactivated HIV-1 BaL; assay: RFADCC, virion bound assay; format: cell-based; details: curves normalized for plateau cytotoxicity values using C11 (Fig. 5D); two independent experiments in duplicate
From the text: (§1) EGFP-CEM-NKr-CCR5-SNAP cells sensitized with AT-2–inactivated HIV-1 BaL were (C) stained for antibody binding and (D) ADCC using the modified rapid fluorometric antibody-mediated cytotoxicity assay (RFADCC)[35]. Cluster A CD4i antibodies A32, N5-i5, C11 and Synagis were used as controls. The plot represents a mean of two independent experiments normalized to the average A32 values with error bars showing the range between experiments.
(§2) In brief, EGFP-CEM-NKr-CCR5-SNAP target cells were first stained with the SNAP-Surface Alexa Fluor 647 dye, washed twice and spinoculated with HIV-1 BaL AT-2 inactivated virus at 2000 RPM for 2 h at 12 °C. Subsequently, AT-2 BaLsensitized double-stained targets were washed twice with cold R10 medium and then subjected to testing for antibody binding (detected with PE-labeled mouse anti-human IgG secondary antibody, BD Bioscence cat. 555787) and RFADCC assay, following the previously described protocol. Samples were collected on a BD Fortessa Special Order instrument (BD Biosciences) and analyzed using FlowJo software (Tree Star, Ashland, OR). The HIV-1BaL AT-2 inactivated virus was generously provided by Dr. Jeff Lifson, NCI, Frederick. The ADCC data represent the typical results obtained in two independent experiments done in duplicate and the bars indicate the range of the values of cytotoxicity.

[5] = biological target: gp41 583-618 peptide, oxidized form (Cys598-Cys604 disulfide) (HIV-1 (clade B, strain BaL)); assay: ITC
[6] = biological target: HIV-1 BaL envelope glycoprotein (Env, gp120/gp41) on AT-2-inactivated virions (HIV-1 (clade B, strain BaL)); assay: fluorescence correlation spectroscopy (FCS); Alexa 647 labelled mAb (5 μg/ml) incubated with 10 μg/ml of free AT-2-inactivated HIV-1 BaL virions for 90 minutes at 37 °C; in solution
[7] = biological target: T1, gp41 583-618 peptide, oxidized form (Cys598-Cys604 disulfide) (HIV-1 (clade B, strain BaL), disulfide bond between Cys598 and Cys604 (oxidized peptide)); assay: SPR
T1 peptide: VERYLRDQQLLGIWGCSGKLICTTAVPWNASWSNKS

[8] = biological target: T1, gp41 583-618 peptide, oxidized form …; assay: SPR
[9] = biological target: T2, gp41 583-618 peptide, reduced form (pretreated with TCEP) (HIV-1 (clade B, strain BaL)); assay: SPR; peptide pretreated with TCEP
T2 peptide: T1 peptide

[10] = biological target: T2, gp41 583-618 peptide, reduced form …; assay: SPR; peptide pretreated with TCEP
[11] = test system: EGFP-CEM-NKr-CCR5-SNAP cells sensitized with AT-2–inactivated HIV-1 BaL; assay: Antibody binding (staining) to virion-sensitized cells, virion bound assay; format: cell-based; details: Fig. 5C; PE-labeled anti-human IgG secondary antibody; mean of two independent experiments normalized to A32
From the text: as §1, §2

[12] = test system: EGFP-CEM-NKr-CCR5-SNAP cells infected with BaL infectious molecular clone; assay: Cell-surface staining of IMC BaL infected EGFP-CEM-NKr-CCR5-SNAP cells; format: cell-based, HIV-1 BaL
Experimental: For BaL-infected cells two gates were delineated: p24+/CD4− and p24+low/CD4+; and one for Mock p24−/CD4+. The plot represents a mean of two independent experiments normalized to the average A32 values with error bars showing the range between experiments.
EGFP-CEM-NKr-CCR5-SNAP cells were spinoculated for 2 hr at 2000 RPM at 12 °C in 96-well U-bottom plate (5 × 10^5 cells/well) with 240 ng of IMC BaL virus (control cells were incubated without virus), as measured by HIV-1 p24 antigen capture ELISA. Afterward, the viral inoculum was diluted 1:2 in R10 medium containing G418 1.5 mg/ml, and cells and virus were placed into one well of a 12-well flat-bottom plate. The cells were then cultured adding fresh medium every 2 days. […] After a wash, cells were then fixed and permeabilized using the Cytofix/Cytoperm Kit (BD-PharMingen, San Diego, Calif.) for 20 min at 4 °C. Subsequently, permeabilized cells were washed once with the buffer provided by the manufacturer, resuspended and stained for 30 min at RT with 5 μl (PE)-conjugated mouse anti-p24 mAb (KC57-RD1; Beckman Coulter, Inc.). After two additional washes, HIV-1- or mock were fixed in PFA 2% analyzed with an LSRII Fortessa flow cytometer (BDBiosciences) and data analysis was performed with FlowJo software (Tree Star,Inc., San Carlos, Calif.). The plot represents a mean of two independent experiments normalized to the average A32 values with error bars showing the range between experiments.

With “gp41 583-618 peptide, reduced form (pretreated with TCEP)” as the molecule, how does the fold lower affinity than the oxidized peptide [1] read?
Its fold lower affinity than the oxidized peptide is 14 fold.

For “VERYLRDQQL[10] LGIWGCSGKL[20] ICTTAVPWNA[30] SWSNKS [reduced gp41_583–618, gp41_583–618 pretreated with TCEP to reduce the C598-C604 disulfide bond]”, which “lower affinity as compared to its oxidized form” value (mAb F240 [2]) is on record?
Its value is “approximately 14 fold”.

“VERYLRDQQL[10] LGIWGCSGKL[20] ICTTAVPWNA[30] SWSNKS (disulfide) [gp41_583–618]” was tested. Which “binding constant KB” value (mAb F240 [3]) did it give?
The value was 2.95e+07 M⁻¹.

What about the Kd (mAb F240 [3]; read-out: dissociation constant KD) of the same molecule?
Its Kd is 34 nM.

“Synagis: Synagis (MedImmune), control mAb [reference compound]” was tested. Which “AUC (Area Under Curve), ADCC” value [4] did it give?
Its value is 18.2 cytotoxicity/μg/ml.

Which results are given for monoclonal antibody F240 (IgG)?
Ka [5]: 2.95e+07 M⁻¹; Kd [5]: 34 nM; percent of binding [6]: 40%

B1: monoclonal antibody F240 (IgG) (antibody, V domains shown)
VH: QVQLVQSGGGVVKPGASSRLSCAASGFTFTDYYMSWIRQAPGKGLEWVAYITKDGSEKKYADSLQHRFAVSRDNANNLVFLQLNTVEDDDTGVYYCARDDGYYDRSGYYGVFDLWGQGIRVTVSS
VL: EFLLTQSPDSLAVTLGETATITCRSSRNILHSLNNKNYLAWYQQRPGQAPKLLVIWASMRVSGVADRFSGSGSGTDFALTISSLQPEDAAVYYCQHYYTTHRTFGQGTRVEIR
modifications: Alexa Fluor 647 on primary amines (only in the FCS experiments and in the staining of IMC BaL-infected cells) | Alexa Fluor 647 on primary amines (only in the FCS experiments and in the staining of IMC BaL-infected cells)
Which results are given for B1?
Kd [7]: 4.4 nM; koff [8]: 0.00083 s⁻¹; Kd [9]: 60 nM; koff [10]: 0.0028 s⁻¹

B2: N5-i5: Cluster A CD4i antibody used as control (antibody, V domains shown)
VH: EVQLVESGGGLVQPGGSLRLSCAASGFTFSTYAMSWVRQAPGKGLEWVSSINNSGRNTFSADSVKGRFTISRDNSKNTLFLVMNSLRAEDTAVYYCAKDLRLGGGSDYWGQGTLVTVSS
VL: QSALTQPASVSGSPGQSITISCTGTSSDVGSYNFVSWYQQHPGKAPKLMIYEVSERPSGISNRFSGSKSGNTASLTISGLQAEDEADYYCSSYAGSTTFRVFGGGTKLTVR
Which “recognition (binding) of virion-sensitized cells, in words” value [11] does the source give for B2 here?
The value was “Lower than reported in ref. [35]”.

What about the “AUC (Area Under Curve), ADCC” value [4] of the same molecule?
The value was 374.8 cytotoxicity/μg/ml.

And the “binding to mock-infected cells” value ([12]; mock p24−/CD4+ population)?
The value was “did not recognize”.

And the “binding to productively infected cells” value ([12]; p24+/CD4− population, 5 days post-infection)?
Its value is “did not recognize”.

What about the “binding to CD4-preserving cells with virus” value ([12]; p24+low/CD4+ population, 5 days post-infection) of the same molecule?
Its value is “very effectively stained”.
